In assay [1] the target is T1, HEK-293-ALL cells transfected with human SLC2A1 (Homo sapiens, UniProt P11166).
T1 construct: expressed in transfected cells; host or cells: HEK-293-ALL
T1 sequence (P11166 1-492): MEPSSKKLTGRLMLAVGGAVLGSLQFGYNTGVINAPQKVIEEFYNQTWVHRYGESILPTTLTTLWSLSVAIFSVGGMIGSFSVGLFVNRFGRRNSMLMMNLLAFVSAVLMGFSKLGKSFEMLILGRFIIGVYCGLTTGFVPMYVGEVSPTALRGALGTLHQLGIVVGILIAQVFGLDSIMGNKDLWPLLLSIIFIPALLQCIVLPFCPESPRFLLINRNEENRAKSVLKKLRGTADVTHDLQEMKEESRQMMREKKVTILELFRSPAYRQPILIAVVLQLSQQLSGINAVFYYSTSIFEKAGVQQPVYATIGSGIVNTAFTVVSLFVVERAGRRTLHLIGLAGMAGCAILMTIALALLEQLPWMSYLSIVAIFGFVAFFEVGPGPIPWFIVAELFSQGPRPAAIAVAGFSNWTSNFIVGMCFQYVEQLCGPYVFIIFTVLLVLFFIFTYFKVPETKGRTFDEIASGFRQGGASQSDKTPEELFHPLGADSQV
As to the kind of experiment: 2-Deoxyglucose uptake assay (Glucose Uptake-Glo). The note with it: 2-hour incubation, 0.35 nM to 6.89 μM, 1 mM 2DG for 20 min, FIG. 4. Format: cell-based. Here is the method:
To evaluate if the described anti-SLC2A1 antibodies inhibit glucose uptake, a commercial Glucose Uptake-Glo Assay kit (Promega) was utilized according to manufacturer's instructions. In short, HEK-293-ALL cells were transfected with human SLC2A1 expression plasmid and were incubated at 37° C. overnight in the presence of 5% CO2. Cells were washed with 0.5% BSA PBS twice and 7000 cells were plated per well into white clear bottom 96-well plates in 0.5% BSA PBS in the presence of 0.35 nM to 6.89 μM anti-SLC2A1 antibodies or glucose uptake inhibitor BAY-876 (CaymanChem). Cells were incubated for 2 hours at room temperature. Glucose uptake was initiated by the addition of 1 mM 2-deoxyglucose (2DG) and was allowed to proceed for 20 min at 37° C. in the presence of 5% CO2. After adding STOP and neutralization reagents included in the kit, luminescence was measured using GloMax Explorer microplate reader (Promega). Nonspecific luminescence was measured in lysates from cells without (2DG) being added. Data was normalized to nonspecific luminescence and to the average value of luminescence in the presence of no inhibitors.

The test system of assay [2] is PC3 prostate cancer cell line. The assay can be described thus: Cell proliferation inhibition assay (Incucyte), PC3. The following applies: alone, FIG. 11. The class given is cell-based. As to the method:
(§1) Incucyte S3 Live cell analysis instrument and Cell-by-Cell analysis software module (Sartorius) were used to evaluate the effect of anti-SLC2A1 antibodies on cancer cell proliferation label-free (FIGS. 5-11). MCF7, PC3 or PANC1 or MIAPACA2 cells were plated on flat bottom tissue culture 96-well plate in […] medium (Ximbio) supplemented with 2.5% FBS. Cells were incubated overnight and 0.02 nM to 13 μM anti-SLC2A1 antibodies, anti-HEL isotype control, PBS or BAY-876 were added to the cells alone or in combination with metformin (CaymanChem), phenformin (Sigma Aldrich) or IACS-010759 (CaymanChem). Cell confluence or object count was measured for 24 to 96 hours with Incucyte S3 and normalized to timepoint 0 h or 4h. anti-SLC2A1 antibodies inhibit cancer cell proliferation alone and especially in combination with complex-I inhibitors metformin, phenformin and IACS-010759. Exemplary antibodies 1G2 #9, 2A2 #12, 2E5 #22, 5G5 #30, 6F12 #33, 7C3 #39 and R14 #54 were used in proliferation assays.

Assay [3] has as its system MIAPACA2 pancreatic cancer cell line. As to the kind of experiment: Cell proliferation inhibition assay (Incucyte), MIAPACA2. The class given is cell-based. The following applies: alone, FIG. 11. Here is the method: as §1
In another assay the test system is MCF7 breast cancer cells. The assay can be described thus: Cell proliferation inhibition assay (Incucyte), MCF7. The note with it: for MCF7 cell growth (confluence), single agent: alone, Incucyte; for MCF7 cell growth in combination with phenformin: co-treatment with phenformin, FIGS. 7 and 9. The class given is cell-based. As to the method:
as §1

The target in assay [4] is T2, SLC2A1 pseudotyped VLPs (UniProt P11166 1-492).
T2 chain: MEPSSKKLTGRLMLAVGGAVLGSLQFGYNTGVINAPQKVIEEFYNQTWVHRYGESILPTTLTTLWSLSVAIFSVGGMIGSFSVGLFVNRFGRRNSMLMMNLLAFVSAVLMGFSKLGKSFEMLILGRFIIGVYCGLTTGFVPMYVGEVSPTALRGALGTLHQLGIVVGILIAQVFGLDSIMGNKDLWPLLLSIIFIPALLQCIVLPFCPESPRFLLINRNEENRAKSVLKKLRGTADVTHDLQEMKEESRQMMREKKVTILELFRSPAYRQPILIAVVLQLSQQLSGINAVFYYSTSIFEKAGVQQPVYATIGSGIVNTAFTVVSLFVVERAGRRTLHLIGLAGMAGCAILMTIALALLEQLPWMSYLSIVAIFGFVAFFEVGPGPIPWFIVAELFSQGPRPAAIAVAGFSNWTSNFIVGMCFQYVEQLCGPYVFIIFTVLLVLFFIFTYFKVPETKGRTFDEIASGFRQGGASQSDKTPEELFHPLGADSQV
The assay can be described thus: ELISA.

Assay [5] has as its target T3, SLC2A1 pseudotyped VLPs (Homo sapiens, UniProt P11166).
T3 sequence (P11166 1-492): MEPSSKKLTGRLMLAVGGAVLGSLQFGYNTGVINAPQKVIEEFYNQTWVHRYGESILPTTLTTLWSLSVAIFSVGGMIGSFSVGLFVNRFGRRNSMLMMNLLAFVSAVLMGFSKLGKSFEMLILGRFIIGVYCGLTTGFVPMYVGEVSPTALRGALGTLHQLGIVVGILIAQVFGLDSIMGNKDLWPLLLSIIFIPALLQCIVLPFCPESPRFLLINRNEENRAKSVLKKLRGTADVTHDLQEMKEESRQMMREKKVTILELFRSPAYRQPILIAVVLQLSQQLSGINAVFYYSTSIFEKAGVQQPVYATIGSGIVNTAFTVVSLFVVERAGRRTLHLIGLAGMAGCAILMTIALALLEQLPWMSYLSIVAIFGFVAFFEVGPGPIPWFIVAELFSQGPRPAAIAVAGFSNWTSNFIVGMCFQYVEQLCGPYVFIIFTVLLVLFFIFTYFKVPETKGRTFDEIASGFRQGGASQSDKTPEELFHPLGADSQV
As to the kind of experiment: ELISA-based SLC2A1 VLP binding assay. The following applies: 5 μg/mL VLP coating, FIG. 1. As to the method:
An ELISA-based VLP binding assay was carried out to compare the EC50 values of antibody clones (FIG. 1). Similarly, ELISA based VLP binding assay was performed to compare the binding of the antibodies to different glucose transporters (FIG. 3). MaxiSorp™ high-capacity binding ELISA plate (Thermo Fisher Scientific, US) were coated with 5 μg/mL SLC2A1, SLC2A2, SLC2A3, SLC2A4 pseudotyped VLPs or MOCK VLPs in PBS overnight. The plate was washed and blocked for 1 h with 0.05% Tween 20, 2% BSA in PBS. Serial dilutions of antibodies were incubated on a washed plate for 1 hour, followed by a 1-hour incubation with goat anti-human IgG horse radish peroxidase (HRP) conjugated (Invitrogen) antibody. TMB (3,3′,5,5′-Tetramethylbenzidine) Solution VII (Biopanda Diagnostics) was used as a substrate for HRP and 0.5 M H2SO4 was used as stop solution. After every step, the wells were washed with 0.05% Tween 20, 0.1% Proclin 300 PBS solution. Absorption at 450 nm was measured with Thermo Scientific™ Multiskan™ FC Microplate Photometer. Exemplary wise used antibodies 1G2 #9, 2A2 #12, 2E5 #22, 5G5 #30, 6F12 #33, 7C3 #39 all bound SLC2A1 VLPs with low nanomolar EC50 values (FIG. 1).
For orientation: In an ELISA, binding on a coated surface is turned into a signal by an enzyme label.

The record followed here is patent US20260167712A1, “INHIBITORY ANTIBODIES AGAINST GLUT1” (ICOSAGEN CELL FACTORY OÜ, priority 2022, published 2026).

Entries after “also recorded” stand apart in the source; their conditions may differ.

As for `Cc1c(NC(=O)c2cc(C(N)=O)nc3cc(F)ccc23)c(C(F)(F)F)nn1Cc1ccc(C#N)cc1` [BAY-876, reference compound], in assay [1], the “glucose (2-deoxyglucose) uptake” value was “strong concentration dependent decrease”.

For the molecule `Cc1nc(-c2nc(-c3ccc(OC(F)(F)F)cc3)no2)nn1Cc1cccc(N2CCC(S(C)(=O)=O)CC2)c1` [IACS-010759, reference compound], the “PC3 cell growth, single agent” value in assay [2] is given as “inhibited”. For the same molecule, the “MIAPACA2 cell growth, single agent” value in assay [3] is on record as “inhibited”. In addition, in the assay on MCF7 breast cancer cells, the “MCF7 cell growth (confluence), single agent” value (“MCF7 cell growth (confluence)” below) is “did not influence cell growth”.

For the molecule `CN(C)C(=N)N=C(N)N` [Metformin, metformin, reference compound], the “MCF7 cell growth (confluence)” value in the assay on MCF7 breast cancer cells is “did not influence cell growth”.

As for `[H]/N=C(/N)N/C(=N/[H])NCCc1ccccc1` [phenformin, reference compound], the “MCF7 cell growth (confluence)” value in the assay with MCF7 breast cancer cells was “did not influence cell growth; also recorded: No growth inhibition”.

B1: 1G2 #9 (antibody, V domains shown)
VH: AVTLDESGGGLQTPGGALSLVCKASGFTFSTKGMGWVRQTPGKGLEWVAGISSMRRYTYYAPAVKGRATISRDNGQSTVRLQLSSLRAEDSGTYYCARDATYCSWTTSTCGWSGGTIDAWGHGTEVIVSS
VL: ALTQPSSVSANPGETVKITCSGSSGSYGWYQQKSPGSAPVTVIYWDDERPSGIPSRFSGSASGSTATLTITGVQAEDEAVYFCGSIDSSVGYVGIFGAGTTLTVL
In the assay with SLC2A1 pseudotyped VLPs [4], B1 showed a concentration giving a half-maximal response (EC50) of 4.1 nM. In the assay with SLC2A1 pseudotyped VLPs [5], the “EC50 of binding to SLC2A1 VLPs” value was “low nanomolar”. The “MCF7 cell growth in combination with phenformin” value with MCF7 breast cancer cells is “No growth inhibition”.

B2: 7C3 #39 (antibody, V domains shown)
VH: AVTLDESGGGLQTPGGALSLVCKASGFTFSTKGMGWVRQTPGKGLEWVAGISSMRRYTYYAPAVKGRATISRDNGQSTVRLQLSSLRAEDSGTYYCARDATYCSWTTSTCGWSGGTIDAWGHGTEVIVSS
VL: ALTQPSSVSANLGGTVKITCSGGGSSSYYGWYQQKSPGSAPVTVIYGNDRRPSDIPSRFSGSASGSTATLTITGVQAEDEAVYFCGSADSSDSGSGIFGAGTTLTVL
Consider B2, for which, in the assay with SLC2A1 pseudotyped VLPs [4], the EC50 was 1.4 nM. Moreover, the “EC50 of binding to SLC2A1 VLPs” value in the assay with SLC2A1 pseudotyped VLPs [5] is “low nanomolar”. Besides, in the assay on MCF7 breast cancer cells, the “MCF7 cell growth in combination with phenformin” value is given as “completely inhibit; also recorded: most potent growth inhibitors”.

B3: 2A2 #12 (antibody, V domains shown)
VH: AVTLDESGGGLQTPGGALSLVCKGSGFTFSTKGMMWVRQAPGKGLEWVAGISSMSRYTYYAPAVKGRATISRDNGQSAVRLQLSSLRAEDTGTYYCARDATYCSWTASTCGWSGGTIDAWGHGTEVIVSS
VL: ALTQPSSVSANPGETVKITCSGGYSYYGTYYYSWYQQKSPGSAPVTLIYRNDKRPSDIPSRFSGSGSGSTSTLTITGVQAEDEAVYFCGSYDSSDSGIFGAGTTLTVL
Take B3: in the assay with SLC2A1 pseudotyped VLPs [4], the half-maximal effective concentration (EC50) came to 2.9 nM. For the same molecule, the “EC50 of binding to SLC2A1 VLPs” value in the assay with SLC2A1 pseudotyped VLPs [5] is listed as “low nanomolar”. The “MCF7 cell growth in combination with phenformin” value in the assay with MCF7 breast cancer cells is on record as “No growth inhibition”.

B4: 5G5 #30 (antibody, V domains shown)
VH: AVTLDESGGGLQTPGGALSLVCKASGFTFSSHAIFWVRQAPDKGLEFVAAISSSSGSWTAYATVVKGRATISRDNGQSTVRLQLNNLRAEDTGTYYCAKAAGSACCYAGSIDAWGHGTEVIVSS
VL: ALTQPSSVSANPGETVKITCSGGSGSSYYGWYQQKSPGSAPVTVIYYDDKRPSDIPSRFSGSKSGSTATLTITGVQVEDEAVYYCGTGDGSIAIFGAGTTLTVL
In the assay with SLC2A1 pseudotyped VLPs [4], B4 gave an EC50 of 1.2 nM. The “EC50 of binding to SLC2A1 VLPs” value in the assay with SLC2A1 pseudotyped VLPs [5] is on record as “low nanomolar”. Moreover, in the assay on MCF7 breast cancer cells (co-treatment with IACS-010759, FIG. 8), the “MCF7 cell growth in combination with IACS-010759” value is reported as “drastically inhibited”. Also, the “MCF7 cell growth in combination with metformin” value in the assay with MCF7 breast cancer cells (co-treatment with metformin, FIG. 6) was “drastically inhibited”. Further, the “MCF7 cell growth in combination with phenformin” value with MCF7 breast cancer cells is listed as “completely inhibit; also recorded: drastically inhibited; also recorded: most potent growth inhibitors”.

Broadly, the EC50 is the concentration at which the effect is half-maximal. Low values mean higher potency in that assay, high ones lower potency in that assay.
